Experimental findings from patent US10920265B2, “Compounds and methods for detection of enzymes that remove methyl succinyl groups from epsilon-amino lysine moieties” (Enzo Life Sciences, Inc., priority 2011, dated 2021) are described below.

Substrate in this data set: CC(=O)N[C@@H](CCCCNC(=O)CCC(=O)O)C(=O)Nc1ccc2c(C)cc(=O)oc2c1
Briefly: SIRT5 desuccinylation/deacetylation of fluorogenic lysyl substrates, trypsin developer. In kind it is biochemical, human. The conditions noted are these: other: varied substrate: Lysyl, 1 mM NAD^+, 10 ng SIRT5, 20 min. at 37° C., pH 8.0. Here is the method: FIG. 3 is graphs showing that SIRT5 catalyzes NAD^+-dependent desuccinylation of Ac-Lys(ε-succinyl)-AMC far more efficiently than NAD^+-dependent deacetylation of Ac-Arg-His-Lys-Lys(ε-acetyl)-AMC. Fifty μl reactions in Assay Buffer (50 mM Tris/HCl, pH 8.0, 137 mM NaCl, 2.7 mM KCl, 1 mM MgCl2, 1 mg/ml BSA) included 50 μM of either Ac-Lys(ε-succinyl)-AMC or Ac-Arg-His-Lys-Lys(ε-acetyl)-AMC, and, where indicated, 500 μM NAD^+ and 5 μg recombinant human SIRT5 (Enzo Life Sciences Cat. # BML-SE555). […] AMC fluorescence was read in a Cytofluor II plate-reading fluorimeter (Perseptive Biosystems) at wavelengths 360 nm (excitation)/460 nm (emission), Gain 54. Data represent the mean of two (No Enzyme) or three (+SIRT5) determinations and error bars the standard deviations. Panels A and B present the same data, but with the +SIRT5/+NAD^+/Ac-Lys(ε-succinyl)-AMC bar omitted from B to show the detail on the remaining bars. Statistically significant differences (Student's t-test) are indicated by asterisks as follows: *: p<0.02 vs. corresponding No Enzyme control; **: p<0.001 vs. corresponding −NAD^+ control; ***: p<3×10^−6 vs. both No Enzyme and −NAD^+ controls.
FIG. 4 is a graph showing that Ac-Lys(Succ.)-AMC enables SIRT5 assay at low enzyme concentrations. Fifty μl reactions in Assay Buffer (50 mM Tris/HCl, pH 8.0, 137 mM NaCl, 2.7 mM KCl, 1 mM MgCl2, 1 mg/ml BSA) included 2 or 10 μM Ac-Lys(ε-succinyl)-AMC, 500 μM NAD^+ and, where indicated, 5 ng recombinant human SIRT5 (Enzo Life Sciences Cat. # BML-SE555). […] AMC fluorescence was read in a Synergy 2 plate-reading fluorimeter (BioTek) at wavelengths 360 nm (excitation)/460 nm (emission), Gain 40. Data represent the mean of two (No Enzyme) or three (5 ng SIRT5) determinations and error bars the standard deviations. Statistically significant differences (Student's t-test) are indicated by asterisks as follows: *: p=0.002; **: p=0.009, each with respect to the corresponding “No SIRT5” samples.
FIG. 5 is graphs showing dependence of SIRT5 initial rate kinetics on the concentrations of Ac-Lys(Succ.)-AMC and Ac-Lys(Ac.)-AMC. Fifty μl desuccinylation or deacetylation reactions were performed as described earlier (FIG. 4), with the indicated concentrations of Ac-Lys(Succ.)-AMC or Ac-Lys(Ac.)-AMC and 1 mM NAD^+, for 20 min. at 37° C. Reactions with Ac-Lys(Succ.)-AMC contained 10 ng SIRT5 and those with Ac-Lys(Ac.)-AMC contained 5 SIRT5. […] AMC fluorescence was read in a Synergy 2 plate-reading fluorimeter (BioTek) at wavelengths 360 nm (excitation)/460 nm (emission), Gain 40. […] Fluorescence differences were converted to specific activities (pmol/min/μg) by measuring the fluorescence increase due to the addition a standard solution of AMC (5 μl of a […]). […]

B1: recombinant human SIRT5 (Homo sapiens) (protein)
chain: SSSMADFRKFFAKAKHIVIISGAGVSAESGVPTFRGAGGYWRKWQAQDLATPLAFAHNPSRVWEFYHYRREVMGSKEPNAGHRAIAECETRLGKQGRRVVVITQNIDELHRKAGTKNLLEIHGSLFKTRCTSCGVVAENYKSPICPALSGKGAPEPGTQDASIPVEKLPRCEEAGCGGLLRPHVVWFGENLDPAILEEVDRELAHCDLCLVVGTSSVVYPAAMFAPQVAARGVPVAEFNTETTPATNRFRFHFQGPCGTTLPEALACHENETVS
notes: purchased Enzo Life Sciences BML-SE555
The term Km denotes the concentration of substrate that gives half-maximal velocity. The kcat is the number of substrate molecules converted per active site and unit of time at saturation. For orientation: kcat/Km means the turnover number divided by the Michaelis constant. As for B1, the Km worked out at 108 µM, the Vmax is 490 pmol/min/µg, the kcat is 0.26 s⁻¹ and the kcat/Km stood at 2450 M⁻¹ s⁻¹.
